Source: US20110257890A1 (IMMATICS BIOTECHNOLOGIES, published 2011)

Target: T1, recombinant HLA-A*2402 molecules lacking the transmembrane domain (human, biotinylated at the carboxy terminus of the heavy chain)
T1 construct: Loaded with the peptide in question; used on streptavidin beads (aAPC) and as PE- or APC-coupled multimers
Assay: peptide-loaded recombinant HLA-A*2402 on beads for T-cell priming, read out with A*2402 multimers

Binder | binding result
FYISPVNKL [AVL9-001] | binds
KYNDTFWKEF [HSP90B1-001] | binds
VYGIRLEHF [NUF2-001] | binds
NYLLYVSNF [MST1R-001] | binds
AYLVYTDRL [PPAP2C-001] | binds
VYIEKNDKL [ERBB3-001] | binds
RFLSGIINF [NUF2-002] | binds
TYGNLLDYL [ABL1-001] | binds
AYAIIKEEL [ATAD2-001] | binds
VYTTSYQQI [NFYB-001] | binds
VFIFKGNQF [MMP3-001] | binds
VFDTAIAHLF [SIAH2-001] | binds
QYASRFVQL [PLK4-001] | binds
NYEETFPHI [MUC6-001] | binds
SYIDVLPEF [MET-006] | binds
NYLPFIMEL [UCHL5-001] | binds
RYLWATVTI [ASPM-001] | binds
IYNGKLFDLL [KIF2C-001] | binds
VYKVVGNLL [IQGAP3-001] | binds
YYNAAGFNKL [UQCRB-001] | binds
SYNPLWLRI [ASPM-002] | binds
LYQILQGIVF (also called TUMAP encoded by CDK1) [CDC2-001] | binds
HYKPTPLYF [SMC4-001] | binds
